The source of these data is patent US20250011363A1, “OPTIMIZED SHORTENED PEPTIDE THAT BINDS TO ACETYLCHOLINE RECEPTOR, AND USE THEREOF” (SKINMED CO., LTD., priority 2021, published 2025).

The assay concerns the target acetylcholine receptor (Homo sapiens, UniProt P02708). The assay can be described thus: SPR binding affinity (RU) of optimized 5mer/6mer/7mer peptides, Examples 6-7. The conditions noted are these: SPR, Resonance Units, peptides tested at 10 μM. The procedure, abridged: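 Peptides were tested at 10 μM by surface plasmon resonance against the receptor, with binding reported as response units. Library sequences were built from frequent (top) or infrequent (bottom) amino acid combinations in 5mer, 6mer-1 and 6mer-2 series.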
In general terms: Surface plasmon resonance follows binding to a sensor surface in real time, without labels.

acetylcholine receptor, sequence (P02708 21-457): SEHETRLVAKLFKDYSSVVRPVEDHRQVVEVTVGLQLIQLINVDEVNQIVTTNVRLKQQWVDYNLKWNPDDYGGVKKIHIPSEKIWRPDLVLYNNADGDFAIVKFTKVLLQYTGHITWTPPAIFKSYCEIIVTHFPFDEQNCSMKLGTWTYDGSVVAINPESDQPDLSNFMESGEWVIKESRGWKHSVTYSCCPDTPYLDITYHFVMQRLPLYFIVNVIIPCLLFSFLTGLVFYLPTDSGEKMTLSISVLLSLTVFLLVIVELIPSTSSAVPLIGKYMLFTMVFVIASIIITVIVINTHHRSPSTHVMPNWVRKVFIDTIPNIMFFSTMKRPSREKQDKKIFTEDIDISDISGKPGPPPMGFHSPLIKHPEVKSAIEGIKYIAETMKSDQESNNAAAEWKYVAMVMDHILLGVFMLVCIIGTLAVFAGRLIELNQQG

In the case of 6mer-2-564 (KQVYRK), under “6mer-2 Top sequence”, the Binding affinity was 148 Ru.
Still for that read-out and setting: with 6mer-2-565 (KSRRRR) the figure was 147 Ru; with 6mer-2-566 (KRLSKK), 139 Ru; with 6mer-2-567 (KLYYRK), 146 Ru.
Still for that read-out and setting: with 6mer-2-568 (KGFQKK) the figure was 142 Ru; with 6mer-2-569 (RWQLRK), 135 Ru; with 6mer-2-570 (RVYYKR), 148 Ru.
Same read-out and setting: with 6mer-2-571 (RGYQRR) the figure was 135 Ru.
For 6mer-2-572 (KSQRRK), the Binding affinity (6mer-2 Top sequence) came to 148 Ru.
Still for that read-out and setting: with 6mer-2-573 (KLYLRR) the figure was 121 Ru.
On the same count and under the same terms, with 6mer-2-574 (KGVYRK) the figure was 153 Ru; with 6mer-2-575 (RGYSRK), 139 Ru.
Consider 6mer-2-576 (KGVSRR), for which the Binding affinity (6mer-2 Top sequence) is 139 Ru.
Same read-out and setting: with 6mer-2-577 (KRVQRR) the figure was 139 Ru.
As to 6mer-2-578 (RSVLRK), where the note is “6mer-2 Top sequence”, the Binding affinity worked out at 135 Ru.
On the same count and under the same terms, with 6mer-2-579 (RWQYRK) the figure was 135 Ru; with 6mer-2-580 (KWQQRR), 121 Ru; with 6mer-2-581 (RVQQKR), 139 Ru.
The same measure, in the same setting: with 6mer-2-582 (RWQTRK) the figure was 148 Ru; with 6mer-2-583 (KSVTKK), 154 Ru.
The same measure, in the same setting: with 6mer-2-584 (KRLTRK) the figure was 148 Ru; with 6mer-2-585 (RSFRRK), 136 Ru; with 6mer-2-586 (RWLSRK), 121 Ru.
As to 6mer-2-587 (KRISKR), for the setting “6mer-2 Top sequence”, the Binding affinity worked out at 148 Ru.
Take 6mer-2-588 (KWFYKK): the Binding affinity (6mer-2 Top sequence) is recorded as 149 Ru.
For 6mer-2-589 (RWQQRK), the Binding affinity (6mer-2 Top sequence) was found to be 153 Ru.
On the same count and under the same terms, with 6mer-2-590 (KGRLRK) the figure was 148 Ru; with 6mer-2-591 (KGILRR), 146 Ru.
Same read-out and setting: with 6mer-2-592 (RWVLRK) the figure was 122 Ru.
Still for that read-out and setting: with 6mer-2-593 (RSQLKR) the figure was 139 Ru.
With 6mer-2-594 (RWYRRR), the Binding affinity (6mer-2 Top sequence) is 139 Ru.
The same measure, in the same setting: with 6mer-2-595 (KLRCKK) the figure was 154 Ru; with 6mer-2-596 (KGIQKK), 153 Ru; with 6mer-2-597 (KQFLRK), 154 Ru.
Same read-out and setting: with 6mer-2-598 (KVFRRR) the figure was 146 Ru.
On the same count and under the same terms, with 6mer-2-599 (RRRYRK) the figure was 121 Ru.
Take 6mer-2-600 (RSQLKK): the Binding affinity (6mer-2 Top sequence) stood at 139 Ru.
6mer-2-601 (KNSHKK): the Binding affinity (6mer-2 Bottom sequence) worked out at 25 Ru.
On the same count and under the same terms, with 6mer-2-602 (RNTPKR) the figure was 24 Ru; with 6mer-2-603 (KFHARR), 32 Ru; with 6mer-2-604 (KEPIRK), 16 Ru.
The same measure, in the same setting: with 6mer-2-605 (KNCGKK) the figure was 17 Ru; with 6mer-2-606 (RKPFRR), 15 Ru.
As for 6mer-2-607 (KKWVKR), the Binding affinity (6mer-2 Bottom sequence) worked out at 31 Ru.
Same read-out and setting: with 6mer-2-608 (RCNHKK) the figure was 32 Ru.
Same read-out and setting: with 6mer-2-609 (RDSDRR) the figure was 24 Ru; with 6mer-2-610 (RKNPKR), 32 Ru; with 6mer-2-611 (RIKMRR), 22 Ru.
Turning to 6mer-2-612 (RDCVRK), where the note is “6mer-2 Bottom sequence”, the Binding affinity was determined as 17 Ru.
Same read-out and setting: with 6mer-2-613 (KAANRR) the figure was 18 Ru; with 6mer-2-614 (KAWIRR), 19 Ru.
Still for that read-out and setting: with 6mer-2-615 (KDNGRK) the figure was 27 Ru; with 6mer-2-616 (REPHRK), 26 Ru; with 6mer-2-617 (RCNGRR), 32 Ru.
Same read-out and setting: with 6mer-2-618 (KHHKKR) the figure was 12 Ru; with 6mer-2-619 (RPPDRR), 26 Ru; with 6mer-2-620 (RHTGRR), 33 Ru.
As for 6mer-2-621 (RHEPKR), where the note is “6mer-2 Bottom sequence”, the Binding affinity was determined as 32 Ru.
Still for that read-out and setting: with 6mer-2-622 (RYTNKR) the figure was 13 Ru; with 6mer-2-623 (KHAHRR), 13 Ru.
Still for that read-out and setting: with 6mer-2-624 (KPPIRK) the figure was 33 Ru.
Still for that read-out and setting: with 6mer-2-625 (RFPDKK) the figure was 33 Ru.
On to 6mer-2-626 (KNSEKK), for which the Binding affinity (6mer-2 Bottom sequence) was found to be 33 Ru.
With 6mer-2-627 (KKTARR), the Binding affinity (6mer-2 Bottom sequence) amounted to 33 Ru.
The same measure, in the same setting: with 6mer-2-628 (RKSFKR) the figure was 30 Ru; with 6mer-2-629 (RFCWKK), 32 Ru.
The same measure, in the same setting: with 6mer-2-630 (RYAFRR) the figure was 27 Ru.
Still for that read-out and setting: with 6mer-2-631 (KYCMKR) the figure was 16 Ru; with 6mer-2-632 (KYDIKR), 12 Ru.
In the case of 6mer-2-633 (KYAVKR), for the setting “6mer-2 Bottom sequence”, the Binding affinity was 17 Ru.
On the same count and under the same terms, with 6mer-2-634 (RYEHRK) the figure was 33 Ru.
Still for that read-out and setting: with 6mer-2-635 (KECVRR) the figure was 11 Ru; with 6mer-2-636 (KMAPKR), 21 Ru.
Still for that read-out and setting: with 6mer-2-637 (RPPVRK) the figure was 32 Ru; with 6mer-2-638 (RCWAKR), 30 Ru.
Regarding 6mer-2-639 (KHTVKK), the Binding affinity (6mer-2 Bottom sequence) was found to be 23 Ru.
Still for that read-out and setting: with 6mer-2-640 (KFKKKR) the figure was 21 Ru.
Same read-out and setting: with 6mer-2-641 (REEFRR) the figure was 12 Ru; with 6mer-2-642 (KTENKK), 16 Ru.
The same measure, in the same setting: with 6mer-2-643 (KANPKK) the figure was 12 Ru; with 6mer-2-644 (REPNRR), 12 Ru.
On to 6mer-2-645 (RIKVKK), for which, for the setting “6mer-2 Bottom sequence”, the Binding affinity worked out at 15 Ru.
Still for that read-out and setting: with 6mer-2-646 (RAAPRR) the figure was 32 Ru.
Same read-out and setting: with 6mer-2-647 (KTEPKR) the figure was 19 Ru; with 6mer-2-648 (RYPDRK), 23 Ru.
On to 6mer-2-649 (KFDVRK), for which the Binding affinity (6mer-2 Bottom sequence) stood at 31 Ru.
On the same count and under the same terms, with 6mer-2-650 (RFKARK) the figure was 18 Ru; with 6mer-2-651 (KNADRR), 21 Ru.
The same measure, in the same setting: with 6mer-2-652 (RTTMRK) the figure was 16 Ru; with 6mer-2-653 (KIEMKR), 20 Ru.
With 6mer-2-654 (RMPEKR), the Binding affinity (6mer-2 Bottom sequence) is on record as 20 Ru.
On the same count and under the same terms, with 6mer-2-655 (KIWFRR) the figure was 31 Ru.
In the case of 6mer-2-656 (KADPRR), where the note is “6mer-2 Bottom sequence”, the Binding affinity is on record as 11 Ru.
The same measure, in the same setting: with 6mer-2-657 (RKHERK) the figure was 32 Ru; with 6mer-2-658 (RYWVKK), 23 Ru; with 6mer-2-659 (KIPNKR), 22 Ru.
On the same count and under the same terms, with 6mer-2-660 (RHKDRK) the figure was 16 Ru; with 6mer-2-661 (RMKAKK), 29 Ru; with 6mer-2-662 (KAHPKK), 11 Ru.
Regarding 6mer-2-663 (KFAGRR), the Binding affinity (6mer-2 Bottom sequence) came out at 24 Ru.
The same measure, in the same setting: with 6mer-2-664 (KCCWKK) the figure was 11 Ru; with 6mer-2-665 (KCAERR), 18 Ru; with 6mer-2-666 (KPMDRR), 25 Ru.
Same read-out and setting: with 6mer-2-667 (KHDMRR) the figure was 25 Ru; with 6mer-2-668 (RFCNKK), 13 Ru.
On the same count and under the same terms, with 6mer-2-669 (KNMWRK) the figure was 15 Ru.
On to 6mer-2-670 (RKWHKR), for which, under “6mer-2 Bottom sequence”, the Binding affinity is recorded as 33 Ru.
On the same count and under the same terms, with 6mer-2-671 (RDWIRR) the figure was 27 Ru; with 6mer-2-672 (KIDDRK), 20 Ru; with 6mer-2-673 (RFCGRK), 23 Ru.
Still for that read-out and setting: with 6mer-2-674 (KKWERK) the figure was 26 Ru; with 6mer-2-675 (RMKWRK), 14 Ru.
Still for that read-out and setting: with 6mer-2-676 (KCTAKK) the figure was 14 Ru.
As for 6mer-2-677 (RENWKK), the Binding affinity (6mer-2 Bottom sequence) amounted to 28 Ru.
Still for that read-out and setting: with 6mer-2-678 (KEWWRR) the figure was 32 Ru; with 6mer-2-679 (RYSAKK), 20 Ru; with 6mer-2-680 (KNHGKR), 15 Ru.
Still for that read-out and setting: with 6mer-2-681 (RDTWRR) the figure was 33 Ru; with 6mer-2-682 (RNMERR), 33 Ru.
On the same count and under the same terms, with 6mer-2-683 (KTEIRK) the figure was 33 Ru; with 6mer-2-684 (RYTMKK), 14 Ru.
For 6mer-2-685 (KFHNRK), where the note is “6mer-2 Bottom sequence”, the Binding affinity is recorded as 15 Ru.
Still for that read-out and setting: with 6mer-2-686 (KTWEKK) the figure was 21 Ru; with 6mer-2-687 (KADGRK), 16 Ru.
On the same count and under the same terms, with 6mer-2-688 (RPMFRK) the figure was 13 Ru; with 6mer-2-689 (RDKERR), 24 Ru.
Still for that read-out and setting: with 6mer-2-690 (KFTMRK) the figure was 13 Ru; with 6mer-2-691 (RHKMRK), 15 Ru.
With 6mer-2-692 (KYTNRR), the Binding affinity (6mer-2 Bottom sequence) came out at 29 Ru.
Regarding 6mer-2-693 (KNTIRR), for the setting “6mer-2 Bottom sequence”, the Binding affinity is 16 Ru.
Same read-out and setting: with 6mer-2-694 (KDSIRK) the figure was 22 Ru; with 6mer-2-695 (KCWWRR), 28 Ru.
